Laboratory results: patent publication US20080267908A1 (YEDA RESEARCH AND DEVELOPMENT, published 2008)

T1: 125I-IL-32 (radio-iodinated IL-32)
T1 chain: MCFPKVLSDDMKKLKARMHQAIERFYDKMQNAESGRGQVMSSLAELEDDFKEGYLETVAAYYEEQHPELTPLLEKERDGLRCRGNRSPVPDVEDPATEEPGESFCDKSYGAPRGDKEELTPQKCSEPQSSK

T2: human urinary PR-3 inactivated by phenyl methyl sulfonyl fluoride (PMSF) (human, UniProt P24158 28-248, inactivated by PMSF (1 mM); the modified residue is not stated)
T2 construct: mature; Same preparation as the urinary PR-3, treated with PMSF before the assay; also called PMSF pretreated urinary PR-3
T2 sequence (looked up): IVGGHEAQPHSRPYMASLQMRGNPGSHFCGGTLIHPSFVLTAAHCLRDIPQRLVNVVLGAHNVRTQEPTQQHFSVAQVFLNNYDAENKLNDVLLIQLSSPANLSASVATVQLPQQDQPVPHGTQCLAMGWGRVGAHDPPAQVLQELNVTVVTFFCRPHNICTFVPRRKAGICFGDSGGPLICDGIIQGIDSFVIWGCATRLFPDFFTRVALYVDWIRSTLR

T3: human urinary Proteinase-3 (PR-3), affinity purified (elution fraction 3 of the IL-32 column), active (human, UniProt P24158 28-248)
T3 construct: mature; also called urinary PR-3; urinary PR3
T3 sequence (looked up): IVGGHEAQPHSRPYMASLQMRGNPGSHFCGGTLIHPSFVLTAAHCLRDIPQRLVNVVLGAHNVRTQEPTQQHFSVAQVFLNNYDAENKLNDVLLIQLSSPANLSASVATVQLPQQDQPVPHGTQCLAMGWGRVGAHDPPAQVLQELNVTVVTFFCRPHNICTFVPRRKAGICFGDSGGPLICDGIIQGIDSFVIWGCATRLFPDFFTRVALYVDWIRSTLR

T4: commercially available human neutrophil derived PR-3 (Athens Research and Technology), active (human, UniProt P24158 28-248)
T4 construct: mature; Bought; purified from human neutrophils; also called commercial PR-3; commercially available PR-3
T4 sequence (looked up): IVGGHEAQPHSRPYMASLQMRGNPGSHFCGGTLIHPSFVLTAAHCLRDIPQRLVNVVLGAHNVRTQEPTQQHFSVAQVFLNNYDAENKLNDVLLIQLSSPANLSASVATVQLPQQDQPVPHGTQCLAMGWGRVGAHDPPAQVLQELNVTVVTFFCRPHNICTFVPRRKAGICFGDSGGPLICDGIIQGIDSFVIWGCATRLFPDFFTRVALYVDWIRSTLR

T5: commercially available human PR-3 (Athens Research and Technology) inactivated by PMSF (human, UniProt P24158 28-248, inactivated by PMSF; the modified residue is not stated)
T5 construct: mature; Same product as the commercial PR-3, treated with PMSF before the assay; also called PMSF pretreated commercial PR-3
T5 sequence (looked up): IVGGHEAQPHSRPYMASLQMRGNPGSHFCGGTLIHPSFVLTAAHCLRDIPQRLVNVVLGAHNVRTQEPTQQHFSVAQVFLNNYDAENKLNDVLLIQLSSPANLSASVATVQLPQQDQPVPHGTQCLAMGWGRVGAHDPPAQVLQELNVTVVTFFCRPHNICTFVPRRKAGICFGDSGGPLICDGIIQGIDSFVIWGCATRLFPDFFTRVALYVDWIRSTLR


Experiments:
[1] = target: T1, 125I-IL-32 (radio-iodinated IL-32)
[2] = target: T2, human urinary PR-3 inactivated by …; assay: SPR (BIAcore), IL-32 immobilized; urinary PR-3 inactivated by PMSF (1 mM) (FIG. 2B)
Method: (§1) FIG. 2 A. IL-32 (20 μg/ml) in acetate buffer pH 4.6) was immobilized to a single channel of a BIAcore chip as recommended by the manufacturer (Amersham Pharmacia, Uppsala Sweden). […] The resulting kD was 7.9×10⁻⁸ M.
(§2) IL-32 (20 μg/ml) in acetate buffer pH 4.6) was immobilized to a single channel of a BIAcore chip as recommended by the manufacturer (Amersham Pharmacia, Uppsala Sweden). […] The same analysis was done with PR-3 that was inactivated by PMSF (1 mM) (FIG. 2B). The resulting kD was 7.9×10⁻⁸ M. The same analysis was done with a commercially available human neutrophil derived PR-3 (Athens Research and Technology, Athens Ga., 0.5 μg in 20 μl gelatin solution) (FIG. 3A). The resulting kD was 1.2×10⁻⁸ M. The binding was repeated with commercial PR-3 that was inactivated by PMSF (FIG. 3B). The resulting kD was 3.5×10⁻⁸ M.

[3] = target: T3, human urinary Proteinase-3 (PR-3), …; assay: SPR (BIAcore), IL-32 immobilized, PR-3 at 10-80 nM; urinary PR3, active (FIG. 2A)
Method: as §1, §2

[4] = target: T4, commercially available human neutrophil …; assay: SPR (BIAcore), IL-32 immobilized; commercial neutrophil-derived PR-3, active (FIG. 3A)
Method: as §1
(§3) For details see FIG. 2. The binding data gave a kD of 1.2×10⁻⁸ M with active PR-3, which considerably degraded the immobilized IL-32 (FIG. 3 A). The kD of commercially available PR-3 that was inactivated by PMSF (FIG. 3 B) was 3.5×10⁻⁸ M.
as §2

[5] = target: T5, commercially available human PR-3 …; assay: SPR (BIAcore), IL-32 immobilized; commercial PR-3 inactivated by PMSF (FIG. 3B)
Method: as §1, §3, §2

Row | Binder | cleavage of 125I-IL-32 (SDS-PAGE, autoradiography) [1] | also measured
1 | human urinary Proteinase-3 (PR-3), affinity purified (elution fraction 3 of the IL-32 column), active (protein) IVGGHEAQPHSRPYMASLQMRGNPGSHFCGGTLIHPSFVLTAAHCLRDIPQRLVNVVLGAHNVRTQEPTQQHFSVAQVFLNNYDAENKLNDVLLIQLSSPANLSASVATVQLPQQDQPVPHGTQCLAMGWGRVGAHDPPAQVLQELNVTVVTFFCRPHNICTFVPRRKAGICFGDSGGPLICDGIIQGIDSFVIWGCATRLFPDFFTRVALYVDWIRSTLR | the 20 kDa band completely disappeared and the levels of the 16 and 13 kDa IL-32 cleavage products increased after a 5 min. incubation with PR-3 | 
2 | human urinary PR-3 inactivated by phenyl methyl sulfonyl fluoride (PMSF) (protein) IVGGHEAQPHSRPYMASLQMRGNPGSHFCGGTLIHPSFVLTAAHCLRDIPQRLVNVVLGAHNVRTQEPTQQHFSVAQVFLNNYDAENKLNDVLLIQLSSPANLSASVATVQLPQQDQPVPHGTQCLAMGWGRVGAHDPPAQVLQELNVTVVTFFCRPHNICTFVPRRKAGICFGDSGGPLICDGIIQGIDSFVIWGCATRLFPDFFTRVALYVDWIRSTLR | no cleavage products were observed with PMSF pretreated PR-3 incubated with IL-32 | 
3 | commercially available human PR-3 (Athens Research and Technology) inactivated by PMSF (protein) IVGGHEAQPHSRPYMASLQMRGNPGSHFCGGTLIHPSFVLTAAHCLRDIPQRLVNVVLGAHNVRTQEPTQQHFSVAQVFLNNYDAENKLNDVLLIQLSSPANLSASVATVQLPQQDQPVPHGTQCLAMGWGRVGAHDPPAQVLQELNVTVVTFFCRPHNICTFVPRRKAGICFGDSGGPLICDGIIQGIDSFVIWGCATRLFPDFFTRVALYVDWIRSTLR | no cleavage products were observed with PMSF pretreated PR-3 incubated with IL-32 | 
4 | commercially available human neutrophil derived PR-3 (Athens Research and Technology), active (protein) IVGGHEAQPHSRPYMASLQMRGNPGSHFCGGTLIHPSFVLTAAHCLRDIPQRLVNVVLGAHNVRTQEPTQQHFSVAQVFLNNYDAENKLNDVLLIQLSSPANLSASVATVQLPQQDQPVPHGTQCLAMGWGRVGAHDPPAQVLQELNVTVVTFFCRPHNICTFVPRRKAGICFGDSGGPLICDGIIQGIDSFVIWGCATRLFPDFFTRVALYVDWIRSTLR | the commercial PR-3 is more potent than the urinary PR-3, leading to complete disappearance of the 20 kDa IL-32 band within 1 min | 
5 | recombinant human IL-32α produced in E. coli (ligand, also called hrIL-32; human recombinant IL-32) MCFPKVLSDDMKKLKARMHQAIERFYDKMQNAESGRGQVMSSLAELEDDFKEGYLETVAAYYEEQHPELTPLLEKERDGLRCRGNRSPVPDVEDPATEEPGESFCDKSYGAPRGDKEELTPQKCSEPQSSK |  | Kd [2]: 79 nM; Kd [3]: 26.5 nM; Kd [4]: 12 nM; Kd [5]: 35 nM
